{"source": "patent US20180185516A1", "about": "“DELIVERY OF TARGET SPECIFIC NUCLEASES” (Sangamo Therapeutics, Inc., priority 2016, published 2018)", "key": {"[1]": {"tested_on": "ZFN 31523 (mALB) (synthetic)", "experiment": "cell_activity", "details": "pair with 48641; mouse liver after third 2 mg/kg LNP dose"}, "[2]": {"tested_on": "mouse albumin", "experiment": "Indel analysis (nuclease activity) in livers of mice injected intravenously with ZFN mRNA LNPs", "assay_type": "in vivo", "details": "48641/31523 mRNA LNP (II-9), single dose 2 mg/kg; FIG. 4B", "protocol": "8-10 week old C57BL6 purchased from Charles River were injected intravenously through the tail vein with 200 uL of an aqueous solution containing diluted LNPs or a mixture of diluted LNPs and AAV donor encoding a human IDS or human FIX transgene containing homology arms flanking the ZFN cut site and a splice acceptor just upstream of the coding sequence of the transgene. Some animals were injected with 5 mg/kg dexamethasone intraperitoneally 30 minutes prior to LNP dosing. Animals were then sacrificed 7 days post LNP dosing or re-dosed with LNPs at either a 7 or 14 day interval before subsequent sacrifice and harvesting of liver tissue. Livers were snap frozen and a small portion of both the left and right lobes were dissected and harvested for gDNA using a FastPrep-24 Homogenizer (MP Biomedicals), Lysis Matrix D solution (MP Biomedicals), and a MasterPure DNA Purification kit (Epicentre).\nPrimers were designed to amplify approximately 200 bp of total genomic DNA sequence containing the ZFN cut site. Amplicons were then ran on either a Miseq or Nextseq (Illumina) and insertions and deletions (indels) from the wildtype genomic sequence were quantified.\nTo test the ability of targeted zinc finger nucleases to cleave a site in the mouse genome in vivo, mRNAs encoding albumin specific nucleases were incorporated into LNPs as described above using the cationic lipid I-6. […]"}, "[3]": {"tested_on": "ZFN 48641 (mALB) (synthetic)", "experiment": "cell_activity", "details": "pair with 31523; mouse liver after third 2 mg/kg LNP dose"}}}
{"compound": "TTTCCTGTAACGATCGGGAACTGGCATC (double strand) [mouse ALB intron 1 right half-site]", "values": [{"measurement": "activity", "setting": "[1]", "value": 25, "unit": "% indels"}]}
{"compound": "C[C@H]1C[C@@H]2[C@H]([C@@H](O)C[C@@]3(C)[C@H]2CC[C@]3(O)C(=O)COC(=O)CCC(=O)[O-])[C@@]2(C)C=CC(=O)C=C12.[Na+]", "note": "[Solumedrol®, methylprednisolone sodium succinate]", "values": [{"measurement": "nuclease activity, dexamethasone pretreatment vs Solumedrol pretreatment plus 3 days", "setting": "[2]", "value": "slightly more efficacious"}]}
{"compound": "CTGAAGGTGGCAATGGTTCCTCTCTGCT (double strand) [mouse ALB intron 1 left half-site]", "values": [{"measurement": "activity", "setting": "[3]", "value": 25, "unit": "% indels"}]}
